Our source for the Kd values is PMC5840397.

Assay [1] has as its target C-terminally His-tagged human ECRG4(32–148) (human) (UniProt Q9H1Z8). In words: SPR; ProteOn XPR36, GLM chip; His-tagged ECRG4 peptides captured by immobilised anti-His antibody; 2 × CTLD–Fc injected at 15.6–250 nM, 60 s association, 120 s dissociation; HBS (10 mM HEPES pH 7.4, 150 mM NaCl, 3 mM EDTA, 0.05% P20); Langmuir model. For orientation: Surface plasmon resonance follows binding to a sensor surface in real time, without labels.

The target in assay [2] is C-terminally His-tagged human ECRG4(71–132) (human) (UniProt Q9H1Z8). The assay is described as above.
Chain of C-terminally His-tagged human ECRG4(71–132) (human) (Q9H1Z8 71-132): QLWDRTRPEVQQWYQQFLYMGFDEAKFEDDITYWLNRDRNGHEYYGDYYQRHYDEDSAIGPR
The target in assay [3] is C-terminally His-tagged human ECRG4(71–148) (human) (UniProt Q9H1Z8). The assay is described as above.
Chain of C-terminally His-tagged human ECRG4(71–148) (human) (Q9H1Z8 71-148): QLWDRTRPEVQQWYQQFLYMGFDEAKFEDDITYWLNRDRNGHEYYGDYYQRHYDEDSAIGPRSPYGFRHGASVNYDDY
The target in the next assay is LOX-1 (Homo sapiens) (UniProt P78380). The following applies: cited from earlier work.

Chain of CRP (P02741 19-224): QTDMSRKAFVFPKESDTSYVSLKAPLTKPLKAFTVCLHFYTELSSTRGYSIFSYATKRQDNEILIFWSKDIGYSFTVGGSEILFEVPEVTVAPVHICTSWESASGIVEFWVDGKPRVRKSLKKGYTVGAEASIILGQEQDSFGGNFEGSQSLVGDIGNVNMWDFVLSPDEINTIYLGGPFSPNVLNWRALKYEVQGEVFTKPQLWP
Chain of C-terminally His-tagged human ECRG4(32–148) (human) (Q9H1Z8 32-148): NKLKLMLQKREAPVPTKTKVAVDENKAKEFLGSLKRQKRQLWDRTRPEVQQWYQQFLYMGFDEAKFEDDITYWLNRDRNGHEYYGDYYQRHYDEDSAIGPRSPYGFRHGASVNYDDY

As for “2 × CTLD–Fc (two human LOX-1 CTLDs in tandem, Fc-fused) (Fc fusion)”, the Kd in assay [1], in assay [2] and in assay [3] was 10 nM throughout.
Turning to CRP (from UniProt P02741), the Kd with LOX-1 (Homo sapiens) is 160 nM.

In general, Kd refers to the free concentration of one partner at which half of the binding sites on the other are occupied at equilibrium, for simple one-to-one binding.
